Measurements taken from article PMC9482650, “Quantitative fragmentomics allow affinity mapping of interactomes” (Nature Communications, 2022).

Experiments:
Test in all cases: holdup assay
Set-up in all cases: key: below the threshold = too weak to quantify, mostly under pKd 3.1 to 4
[1] = biological target: T1, APBA2_1, Q99767
T1 sequence (Q99767 563-664, limits assumed, looked up): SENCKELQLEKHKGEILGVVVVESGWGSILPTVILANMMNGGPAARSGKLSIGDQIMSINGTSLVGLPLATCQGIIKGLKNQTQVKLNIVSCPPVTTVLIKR

[2] = biological target: T2, DFNB31_3, Q9P202
T2 sequence (Q9P202 811-907, limits assumed, looked up): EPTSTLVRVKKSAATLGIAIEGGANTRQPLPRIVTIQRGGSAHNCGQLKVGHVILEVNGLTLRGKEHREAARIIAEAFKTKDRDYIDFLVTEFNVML

[3] = biological target: DLG1_3, Q12959
Sequence of DLG1_3, Q12959 (Q12959 457-571): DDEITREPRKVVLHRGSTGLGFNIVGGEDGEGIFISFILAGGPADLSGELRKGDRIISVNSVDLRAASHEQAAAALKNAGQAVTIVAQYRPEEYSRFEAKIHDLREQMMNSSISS

[4] = biological target: DLG2_2, Q15700; details: plain residues with an end cap or a label only (N-terminal biotin on a linker: ttds)
Sequence of DLG2_2, Q15700 (Q15700 189-283): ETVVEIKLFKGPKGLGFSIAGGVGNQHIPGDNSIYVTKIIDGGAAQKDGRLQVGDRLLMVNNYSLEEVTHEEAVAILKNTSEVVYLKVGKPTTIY

[5] = biological target: T3, DLG3_3, Q92796; details: plain residues with an end cap or a label only (N-terminal biotin on a linker: ttds)
T3 sequence (Q92796 374-475, limits assumed, looked up): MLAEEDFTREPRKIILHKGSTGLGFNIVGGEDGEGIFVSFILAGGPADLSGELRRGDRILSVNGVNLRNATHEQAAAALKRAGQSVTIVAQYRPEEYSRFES

[6] = biological target: DLG4_1, P78352
Sequence of DLG4_1, P78352 (P78352 62-152): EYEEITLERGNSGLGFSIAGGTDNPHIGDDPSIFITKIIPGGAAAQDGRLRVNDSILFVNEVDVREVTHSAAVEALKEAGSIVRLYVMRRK

[7] = biological target: DLG4_2, P78352
Sequence of DLG4_2, P78352 (P78352 155-259): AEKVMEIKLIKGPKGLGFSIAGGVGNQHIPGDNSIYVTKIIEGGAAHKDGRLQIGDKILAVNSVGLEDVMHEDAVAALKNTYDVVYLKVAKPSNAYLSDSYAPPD

[8] = biological target: DLG4_3, P78352
Sequence of DLG4_3, P78352 (P78352 306-403): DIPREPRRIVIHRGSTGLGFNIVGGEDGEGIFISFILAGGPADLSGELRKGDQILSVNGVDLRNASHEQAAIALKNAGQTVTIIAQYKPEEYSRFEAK

[9] = biological target: FRMPD2_1, Q68DX3
Sequence of FRMPD2_1, Q68DX3 (Q68DX3 770-861): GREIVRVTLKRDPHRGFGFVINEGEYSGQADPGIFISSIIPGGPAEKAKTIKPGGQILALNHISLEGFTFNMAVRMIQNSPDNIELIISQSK

[10] = biological target: FRMPD4, Q14CM0
Sequence of FRMPD4, Q14CM0 (Q14CM0 67-160): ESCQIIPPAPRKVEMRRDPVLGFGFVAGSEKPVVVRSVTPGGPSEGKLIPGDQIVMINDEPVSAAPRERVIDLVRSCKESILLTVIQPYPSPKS

[11] = biological target: GOPC, Q9HD26
[12] = biological target: GORASP2, Q9H8Y8
[13] = biological target: T4, GRIP1_7, Q9Y3R0
T4 sequence (Q9Y3R0 999-1096, limits assumed, looked up): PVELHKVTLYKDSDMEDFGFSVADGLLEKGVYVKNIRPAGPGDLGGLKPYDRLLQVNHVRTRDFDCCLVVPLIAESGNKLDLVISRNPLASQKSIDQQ

[14] = biological target: GRIP2_3, Q9C0E4
Sequence of GRIP2_3, Q9C0E4 (Q9C0E4 238-339): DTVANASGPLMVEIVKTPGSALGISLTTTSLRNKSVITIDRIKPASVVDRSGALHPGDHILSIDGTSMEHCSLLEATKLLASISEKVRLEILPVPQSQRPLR

[15] = biological target: T5, HTRA4, P83105
T5 sequence (P83105 378-476, limits assumed, looked up): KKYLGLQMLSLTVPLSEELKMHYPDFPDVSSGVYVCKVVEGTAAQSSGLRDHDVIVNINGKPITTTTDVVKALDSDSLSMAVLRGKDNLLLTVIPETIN

[16] = biological target: Inadl_2, Q8NI35
Sequence of Inadl_2, Q8NI35 (Q8NI35 238-335): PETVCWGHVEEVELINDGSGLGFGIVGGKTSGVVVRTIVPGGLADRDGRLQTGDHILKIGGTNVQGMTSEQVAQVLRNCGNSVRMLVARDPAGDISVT

[17] = biological target: Inadl_8, Q8NI35
Sequence of Inadl_8, Q8NI35 (Q8NI35 1425-1530): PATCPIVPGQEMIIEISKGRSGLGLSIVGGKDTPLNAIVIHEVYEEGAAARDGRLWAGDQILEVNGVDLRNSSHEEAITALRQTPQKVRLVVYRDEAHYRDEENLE

[18] = biological target: LIMK2, P53671
Sequence of LIMK2, P53671 (P53671 143-248): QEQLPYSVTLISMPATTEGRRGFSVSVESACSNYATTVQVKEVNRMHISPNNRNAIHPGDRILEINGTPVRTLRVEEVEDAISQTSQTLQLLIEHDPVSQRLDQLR

[19] = biological target: LNX1_1, Q8TBB1
Sequence of LNX1_1, Q8TBB1 (Q8TBB1 261-371): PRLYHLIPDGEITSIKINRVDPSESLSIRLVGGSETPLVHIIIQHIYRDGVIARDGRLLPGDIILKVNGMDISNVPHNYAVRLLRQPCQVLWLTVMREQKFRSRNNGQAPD

[20] = biological target: LNX1_3, Q8TBB1
Sequence of LNX1_3, Q8TBB1 (Q8TBB1 500-596): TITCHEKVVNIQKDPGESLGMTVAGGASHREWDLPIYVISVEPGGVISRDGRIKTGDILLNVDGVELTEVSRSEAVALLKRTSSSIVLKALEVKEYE

[21] = biological target: MAGI2_3, Q86UL8
Sequence of MAGI2_3, Q86UL8 (Q86UL8 600-682): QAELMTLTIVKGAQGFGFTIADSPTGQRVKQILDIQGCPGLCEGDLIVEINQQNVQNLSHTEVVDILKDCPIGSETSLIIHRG

[22] = biological target: MAGI2_5, Q86UL8
Sequence of MAGI2_5, Q86UL8 (Q86UL8 915-1017): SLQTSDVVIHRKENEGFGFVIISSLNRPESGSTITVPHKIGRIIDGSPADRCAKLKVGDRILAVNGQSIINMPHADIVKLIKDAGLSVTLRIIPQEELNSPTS

[23] = biological target: MAST2, Q6P0Q8
Sequence of MAST2, Q6P0Q8 (Q6P0Q8 1099-1202): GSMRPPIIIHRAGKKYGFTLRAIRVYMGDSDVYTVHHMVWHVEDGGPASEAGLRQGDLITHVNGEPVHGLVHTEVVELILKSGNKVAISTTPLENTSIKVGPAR

[24] = biological target: T6, NHERF3_1, Q5T2W1
T6 sequence (Q5T2W1 4-100, limits assumed, looked up): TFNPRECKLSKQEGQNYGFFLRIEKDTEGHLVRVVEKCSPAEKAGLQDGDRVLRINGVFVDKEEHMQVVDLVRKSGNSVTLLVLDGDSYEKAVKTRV

[25] = biological target: NHERF4_1, Q86UT5-2
Sequence of NHERF4_1, Q86UT5-2 (Q86UT5 other isoform, or with tags, fused parts or gaps): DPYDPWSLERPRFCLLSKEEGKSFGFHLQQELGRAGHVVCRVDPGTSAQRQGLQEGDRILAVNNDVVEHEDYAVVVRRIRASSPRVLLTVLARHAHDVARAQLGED

[26] = biological target: NHERF4_4, Q86UT5
Sequence of NHERF4_4, Q86UT5 (Q86UT5 464-550): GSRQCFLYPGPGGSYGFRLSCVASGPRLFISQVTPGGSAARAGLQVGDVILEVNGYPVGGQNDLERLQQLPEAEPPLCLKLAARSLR

[27] = biological target: T7, PDZD2_2, O15018
T7 sequence (O15018 329-429, limits assumed, looked up): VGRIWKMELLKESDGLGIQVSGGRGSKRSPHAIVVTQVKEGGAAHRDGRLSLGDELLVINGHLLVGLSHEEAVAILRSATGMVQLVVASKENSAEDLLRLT

[28] = biological target: SCRIB_1, Q14160
Sequence of SCRIB_1, Q14160 (Q14160 718-814): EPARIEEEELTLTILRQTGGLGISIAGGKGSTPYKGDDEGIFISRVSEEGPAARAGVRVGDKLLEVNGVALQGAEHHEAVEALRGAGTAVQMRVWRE

[29] = biological target: SCRIB_2, Q14160
Sequence of SCRIB_2, Q14160 (Q14160 857-960): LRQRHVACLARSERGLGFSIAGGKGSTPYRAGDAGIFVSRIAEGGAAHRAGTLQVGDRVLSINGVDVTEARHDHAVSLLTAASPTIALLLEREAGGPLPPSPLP

[30] = biological target: SNX27, Q96L92; details: plain residues with an end cap or a label only (N-terminal biotin on a linker: ttds)
[31] = biological target: T8, TJP3_3, O95049
T8 sequence (O95049 375-456, limits assumed, looked up): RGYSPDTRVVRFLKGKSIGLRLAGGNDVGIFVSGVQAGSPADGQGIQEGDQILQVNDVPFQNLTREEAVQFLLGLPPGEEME

[32] = plain residues with an end cap or a label only (N-terminal biotin on a linker: ttds)
[33] = plain residues with an end cap or a label only (N-terminal biotin on a linker: ahx)

How did the pKd [1, 32] turn out when PRVKPQRSKV [PPP1R13L, Q8WUF5] was run?
The pKd was “below the threshold”.

And the pKd [2, 32]?
Its pKd is “below the threshold”.

And the pKd [3, 32]?
The pKd was “below the threshold”.

And the pKd [4]?
Its pKd is “below the threshold”.

What about the pKd [5] of the same binder?
Its pKd is “below the threshold”.

And the pKd [6, 32]?
Its pKd is 3.54.

What about the pKd [7, 32] of the same binder?
Its pKd is “below the threshold”.

And the pKd [8, 32]?
The pKd was “below the threshold”.

What about the pKd [9, 32] of the same binder?
Its pKd is “below the threshold”.

And the pKd [10, 32]?
The pKd was “below the threshold”.

What about the pKd [11, 32] of the same binder?
The pKd was 3.95.

And the pKd [12, 32]?
Its pKd is “below the threshold”.

And the pKd [13, 32]?
The pKd was “below the threshold”.

What about the pKd [14, 32] of the same binder?
Its pKd is “below the threshold”.

And the pKd [15, 32]?
Its pKd is “below the threshold”.

And the pKd [16, 32]?
Its pKd is “below the threshold”.

What about the pKd [17, 32] of the same binder?
The pKd was 4.35.

And the pKd [18, 32]?
Its pKd is “below the threshold”.

And the pKd [19, 32]?
The pKd was “below the threshold”.

And the pKd [20, 32]?
Its pKd is “below the threshold”.

And the pKd [21, 32]?
Its pKd is “below the threshold”.

What about the pKd [22, 32] of the same binder?
The pKd was “below the threshold”.

What about the pKd [23, 32] of the same binder?
The pKd was 3.82.

And the pKd [24, 32]?
The pKd was “below the threshold”.

And the pKd [25, 32]?
The pKd was “below the threshold”.

What about the pKd [26, 32] of the same binder?
The pKd was “below the threshold”.

What about the pKd [27, 32] of the same binder?
Its pKd is 4.01.

And the pKd [28, 32]?
The pKd was “below the threshold”.

What about the pKd [29, 32] of the same binder?
Its pKd is “below the threshold”.

And the pKd [30]?
Its pKd is “below the threshold”.

And the pKd [31, 32]?
Its pKd is “below the threshold”.

For NDPAWDETNL [ARHGEF7, Q14155;Q14155-1], which pKd [1, 32] is on record?
The pKd was “below the threshold”.

What about the pKd [2, 32] of the same binder?
Its pKd is “below the threshold”.

And the pKd [3, 32]?
The pKd was “below the threshold”.

And the pKd [4]?
Its pKd is “below the threshold”.

And the pKd [5]?
The pKd was “below the threshold”.

And the pKd [6, 32]?
Its pKd is “below the threshold”.

What about the pKd [7, 32] of the same binder?
The pKd was “below the threshold”.

And the pKd [8, 32]?
The pKd was “below the threshold”.

And the pKd [9, 32]?
The pKd was “below the threshold”.

And the pKd [10, 32]?
Its pKd is 4.66.

And the pKd [11, 32]?
The pKd was 4.13.

And the pKd [12, 32]?
Its pKd is “below the threshold”.

And the pKd [13, 32]?
Its pKd is “below the threshold”.

What about the pKd [14, 32] of the same binder?
Its pKd is “below the threshold”.

What about the pKd [15, 32] of the same binder?
The pKd was “below the threshold”.

And the pKd [16, 32]?
Its pKd is “below the threshold”.

And the pKd [17, 32]?
Its pKd is “below the threshold”.

What about the pKd [18, 32] of the same binder?
Its pKd is “below the threshold”.

And the pKd [19, 32]?
Its pKd is “below the threshold”.

And the pKd [20, 32]?
Its pKd is “below the threshold”.

What about the pKd [21, 32] of the same binder?
The pKd was “below the threshold”.

And the pKd [22, 32]?
Its pKd is “below the threshold”.

What about the pKd [23, 32] of the same binder?
The pKd was 5.98.

What about the pKd [24, 32] of the same binder?
Its pKd is 4.26.

What about the pKd [25, 32] of the same binder?
The pKd was “below the threshold”.

What about the pKd [26, 32] of the same binder?
The pKd was “below the threshold”.

What about the pKd [28, 32] of the same binder?
The pKd was 5.5.

And the pKd [29, 32]?
Its pKd is 4.68.

What about the pKd [30] of the same binder?
The pKd was 5.66.

What about the pKd [31, 32] of the same binder?
The pKd was “below the threshold”.

How did the pKd [1, 33] turn out when LSDPSVSTVV [GRIN1, Q05586;Q05586-2] was run?
The pKd was “below the threshold”.

And the pKd [2, 33]?
Its pKd is “below the threshold”.

What about the pKd [3, 33] of the same binder?
The pKd was “below the threshold”.

What about the pKd [6, 33] of the same binder?
The pKd was 4.1.

What about the pKd [7, 33] of the same binder?
The pKd was 4.31.

What about the pKd [8, 33] of the same binder?
Its pKd is “below the threshold”.

And the pKd [9, 33]?
The pKd was “below the threshold”.

And the pKd [10, 33]?
Its pKd is “below the threshold”.

And the pKd [11, 33]?
Its pKd is “below the threshold”.

And the pKd [12, 33]?
Its pKd is “below the threshold”.

And the pKd [13, 33]?
Its pKd is “below the threshold”.

And the pKd [14, 33]?
Its pKd is “below the threshold”.

And the pKd [15, 33]?
The pKd was “below the threshold”.

What about the pKd [16, 33] of the same binder?
Its pKd is “below the threshold”.

And the pKd [17, 33]?
Its pKd is “below the threshold”.

And the pKd [18, 33]?
Its pKd is “below the threshold”.

What about the pKd [19, 33] of the same binder?
The pKd was 4.17.

And the pKd [20, 33]?
Its pKd is “below the threshold”.

And the pKd [21, 33]?
Its pKd is “below the threshold”.

And the pKd [22, 33]?
Its pKd is 4.36.

And the pKd [23, 33]?
Its pKd is 4.25.

What about the pKd [24, 33] of the same binder?
The pKd was “below the threshold”.

And the pKd [25, 33]?
The pKd was “below the threshold”.

And the pKd [26, 33]?
Its pKd is “below the threshold”.

And the pKd [27, 33]?
Its pKd is 4.44.

What about the pKd [28, 33] of the same binder?
The pKd was “below the threshold”.

What about the pKd [29, 33] of the same binder?
The pKd was “below the threshold”.

What about the pKd [31, 33] of the same binder?
Its pKd is “below the threshold”.
